This note sets out measurements from PMC6821195, “The internal interaction in RBBP5 regulates assembly and activity of MLL1 methyltransferase complex” (Nucleic Acids Research, 2019).

To fix the notation:
B1: RBBP5 404-538 (protein)
chain: IAPEVEDPEENPYGPPPDAVQTSLMDEGASSEKKRQSSADGSQPPKKKPKTTNIELQGVPNDEVHPLLGVKGDGKSKKKQAGRPKGSKGKEKDSPFKPKLYKGDRGLPLEGSAKGKVQAELSQPLTAGGAISELL
B2: RBBP5 WD40 propeller (residues 2–333) (domain or fragment)
chain: NLELLESFGQNYPEEADGTLDCISMALTCTFNRWGTLLAVGCNDGRIVIWDFLTRGIAKIISAHIHPVCSLCWSRDGHKLVSASTDNIVSQWDVLSGDCDQRFRFPSPILKVQYHPRDQNKVLVCPMKSAPVMLTLSDSKHVVLPVDDDSDLNVVASFDRRGEYIYTGNAKGKILVLKTDSQDLVASFRVTTGTSNTTAIKSIEFARKGSCFLINTADRIIRVYDGREILTCGRDGEPEPMQKLQDLVNRTPWKKCCFSGDGEYIVAGSARQHALYIWEKSIGNLVKILHGTRGELLLDVAWHPVRPIIASISSGVVSIWAQNQVENWSAFA
B3: RBBP5_(390–480d) (C-terminal distal region 390–480 with the 422–443 loop deletion) (domain or fragment, human, UniProt Q15291 390-480, looked up)
chain: DEELEDSKALLYLPIAPEVEDPEENPYGPPPDGSQPPKKKPKTTNIELQGVPNDEVHPLLGVKGDGKSK
notes: RBBP5, human, residues 390-480 with the loop 422-443 deleted; also called RBBP5_(CTDM); C-Terminal Distal Minimized; source: Rosetta cells, purified (Ni-NTA, on-beads Ulp1 digestion, SEC)
B4: RBBP5390-480d I457/L459A (protein)
chain: B3 chain with I46A, L48A
B5: RBBP5_(390–480d) (C-terminal distal region 390–480 with the 422–443 loop deletion), Q15291 L399A; L400A; I457A; L459A (protein)
chain: B3 chain with L10A, L11A, I46A, L48A
B6: RBBP5_(CTDM) (RBBP5_(390–480d)) L400A (domain or fragment, human, UniProt Q15291 390-480, looked up)
chain: B3 chain with L11A
notes: RBBP5, human, residues 390-480 with the loop 422-443 deleted, L400A; source: Rosetta cells, purified (Ni-NTA, on-beads Ulp1 digestion, SEC)
B7: RBBP5_(CTDM) (RBBP5_(390–480d)) I457A (domain or fragment, human, UniProt Q15291 390-480, looked up)
chain: B3 chain with I46A
notes: RBBP5, human, residues 390-480 with the loop 422-443 deleted, I457A; source: Rosetta cells, purified (Ni-NTA, on-beads Ulp1 digestion, SEC)
B8: RBBP5_(CTDM) (RBBP5_(390–480d)) L459A (domain or fragment, human, UniProt Q15291 390-480, looked up)
chain: B3 chain with L48A
notes: RBBP5, human, residues 390-480 with the loop 422-443 deleted, L459A; source: Rosetta cells, purified (Ni-NTA, on-beads Ulp1 digestion, SEC)
B9: RBBP5_(CTDM) (RBBP5_(390–480d)) L470A (domain or fragment, human, UniProt Q15291 390-480, looked up)
chain: B3 chain with L59A
notes: RBBP5, human, residues 390-480 with the loop 422-443 deleted, L470A; source: Rosetta cells, purified (Ni-NTA, on-beads Ulp1 digestion, SEC)
B10: RBBP5_(CTDM) (RBBP5_(390–480d)) L399A (domain or fragment, human, UniProt Q15291 390-480, looked up)
chain: B3 chain with L10A
notes: RBBP5, human, residues 390-480 with the loop 422-443 deleted, L399A; source: Rosetta cells, purified (Ni-NTA, on-beads Ulp1 digestion, SEC)
B11: RBBP5_(393–480) construct (domain or fragment, human, UniProt Q15291 393-480, looked up)
chain: LEDSKALLYLPIAPEVEDPEENPYGPPPDAVQTSLMDEGASSEKKRQSSADGSQPPKKKPKTTNIELQGVPNDEVHPLLGVKGDGKSK
notes: RBBP5, human, residues 393-480; source: Rosetta cells, purified (Ni-NTA, on-beads Ulp1 digestion, SEC)
B12: RBBP5 390-467 (protein)
chain: DEELEDSKALLYLPIAPEVEDPEENPYGPPPDAVQTSLMDEGASSEKKRQSSADGSQPPKKKPKTTNIELQGVPNDEV
B13: RBBP5 381-480 (protein)
chain: DPIAAFCSSDEELEDSKALLYLPIAPEVEDPEENPYGPPPDAVQTSLMDEGASSEKKRQSSADGSQPPKKKPKTTNIELQGVPNDEVHPLLGVKGDGKSK
B14: RBBP5 C-terminal construct (390–480) (domain or fragment, human, UniProt Q15291 390-480, looked up)
chain: DEELEDSKALLYLPIAPEVEDPEENPYGPPPDAVQTSLMDEGASSEKKRQSSADGSQPPKKKPKTTNIELQGVPNDEVHPLLGVKGDGKSK
notes: RBBP5, human, residues 390-480; also called RBBP5_(390–480); source: Rosetta cells, purified (Ni-NTA, on-beads Ulp1 digestion, SEC)
B15: RBBP5 C-terminal distal region (residues 381–538) (domain or fragment, human, UniProt Q15291 381-538, looked up)
chain: DPIAAFCSSDEELEDSKALLYLPIAPEVEDPEENPYGPPPDAVQTSLMDEGASSEKKRQSSADGSQPPKKKPKTTNIELQGVPNDEVHPLLGVKGDGKSKKKQAGRPKGSKGKEKDSPFKPKLYKGDRGLPLEGSAKGKVQAELSQPLTAGGAISELL
notes: also called RBBP5CTD; source: Rosetta cells, purified (Ni-NTA, on-beads Ulp1 digestion, SEC)
B16: RBBP5 390-474 (protein)
chain: DEELEDSKALLYLPIAPEVEDPEENPYGPPPDAVQTSLMDEGASSEKKRQSSADGSQPPKKKPKTTNIELQGVPNDEVHPLLGVK

Residue numbers refer to the chain shown, from its start. In names and notes the source's numbering stands. Read-outs that look alike come from different tables or passages of the source.

Data set [1] deals with RBBP5 2-325 (Homo sapiens). Nature of the data set: fluorescence polarization. To be noted: FP: 20 mM HEPES pH 7.4, 150 mM NaCl, 0.1% BSA, 0.1 uM DNA, 25 C, 30 min; EMSA: 20 mM Tris-HCl pH 8.0, 150 mM NaCl, 10% glycerol, 0.1 uM nucleosome, on ice 1 h …. For orientation: Polarisation of emitted light reports the rotation of a fluorescent probe.
For data set [2], the system named is RBBP5 CTD3 (Homo sapiens). Put plainly: fluorescence polarization. Conditions: FP: 20 mM HEPES pH 7.4, 150 mM NaCl, 0.1% BSA, 0.1 uM DNA, 25 C, 30 min; EMSA: 20 mM Tris-HCl pH 8.0, 150 mM NaCl, 10% glycerol, 0.1 uM nucleosome, on ice 1 h ….
Data set [3] concerns RBBP5 full-length (Homo sapiens). Put plainly: fluorescence polarization. To be noted: FP: 20 mM HEPES pH 7.4, 150 mM NaCl, 0.1% BSA, 0.1 uM DNA, 25 C, 30 min; EMSA: 20 mM Tris-HCl pH 8.0, 150 mM NaCl, 10% glycerol, 0.1 uM nucleosome, on ice 1 h ….
Data set [4] has as its target B2. Put plainly: ITC. (In general: In ITC the heat of successive injections is recorded.)
The target of data set [5] is T1, RBBP5_(390–480d) (C-terminal distal region 390–480 with the 422–443 loop deletion) (human, UniProt Q15291 390-480, 422–443 loop deletion). Nature of the data set: ITC.
The target of data set [6] is T1, RBBP5_(390–480d) (C-terminal distal …). Nature of the data set: ITC. The source holds these as a separate data set.
In data set [7] the target is T2, RBBP5 WD40 propeller (residues 2–333) (human, UniProt Q15291 2-333).
T2 construct: source: Rosetta cells, purified (Ni-NTA, on-beads Ulp1 digestion, SEC)
Put plainly: ITC; RBBP5 C-terminal constructs, RBBP5_(390–480d) or its mutants (1 mM) injected into 0.1 mM RBBP5_(2–333); 300 mM NaCl, 25 mM Tris–HCl pH 8.0; 20°C; one-site model. To be noted: both partners purified.

Data set [8] has as its target T3, RBBP5 WD40 propeller with residues 10–325 (RBBP5_(10–325)) (human, UniProt Q15291 10-325, selenomethionine (Se-Met derivative protein)).
T3 construct: RBBP5, human, residues 10-325 (WD40 propeller); native and Se-Met complexes were both crystallised; the solved dataset is of the Se-Met crystal; also called SeMet RBBP5_(10–325); source: Rosetta cells (Se-Met derivative grown in M9 minimal media), purified (Ni-NTA, on-beads Ulp1 digestion, SEC)
Nature of the data set: crystal structure; RBBP5_(10–325) and RBBP5_(390–480d) mixed at 1:2 and purified by SEC; crystals in 0.1 M HEPES-Na pH 7.5, 2% PEG 400, 2.0 M ammonium sulfate, 16°C; Se-Met SAD, 1.8 Å. To be noted: both partners purified. On the technique in general: Size exclusion chromatography separates by hydrodynamic size, large species first.

Data set [9] addresses B2. Put plainly: ITC.
Data set [10] has as its target T4, RBBP5 WD40 propeller (residues 2–333), Q15291.
T4 chain: B2 chain
Nature of the data set: ITC. To be noted: chain shown with the change; 25mM Tris–HCl, 300 mM NaCl, pH 8.0.

Data set [11] addresses B2. Nature of the data set: ITC; 300 mM NaCl.
The target of data set [12] is B2. Nature of the data set: ITC; 800 mM NaCl.
In data set [13] the target is T2, RBBP5 WD40 propeller (residues 2–333). Put plainly: ITC; RBBP5_(381–538) (1 mM) titrated into 0.1 mM RBBP5_(2–333); 150 mM NaCl, 25 mM Tris–HCl pH 8.0 (300 and 800 mM NaCl also tested); 20°C; one-site model. To be noted: both partners purified.

In the case of FAM-labelled 167-bp dsDNA, the figures for the Kd in data set [1], in data set [2] and in data set [3] were 35.1 µM, 13.3 µM and 11.5 µM, respectively.
Turning to B1, in data set [4], binding was characterised by a dissociation constant (Kd) of 59.8 µM.
On to B2, for which the Kd (in general, the constant that tells how readily two partners part at equilibrium) was 4.3 µM in data set [5] and 5.2 µM in data set [6].
As to B3, the binding result in data set [7] and in data set [8] was “binds” in each case.
In data set [9], B4 came in with a dissociation constant (Kd) of 108 µM.
For B5, the Kd in data set [10] came to 369 µM.
Regarding B6, in [7], the Kd was roughly 70 µM and the “fold decrease in affinity against wild-type RBBP5_(CTDM)” value was roughly 13 fold.
As for B7, in data set [7], the binding result is listed as “binds”.
For B8, the binding result in data set [7] is listed as “binds”.
Turning to B9, the Kd in data set [10] was determined as 19.1 µM. For the same molecule, the binding result in [7] is given as “binds”.
On to B10, for which, in [7], the Kd was roughly 70 µM and the “fold decrease in affinity against wild-type RBBP5_(CTDM)” value was roughly 13 fold.
B11 displayed a Kd in data set [4] of 20.3 µM. The binding result in [7] is on record as “binds”.
Turning to B12, the Kd in data set [4] worked out at 17.3 µM. That is a double-digit micromolar value.
In [4], B13 returned a Kd of 9.6 µM.
With B14, binding in [4] was characterised by a dissociation constant (Kd) of 7.5 µM. In addition, the binding result in data set [7] is reported as “binds”.
For the molecule B15, the Kd in data set [4] stood at 9.7 µM; in data set [11], 9.7 µM; in data set [12], 24.6 µM; in data set [13], 6.8 µM.
Regarding B16, the Kd in data set [4] was found to be 11.7 µM.
